Experimental data from patent US10077319B2, “Anti-PCSK9-GLP-1 fusions and methods for use” (MedImmune, LLC, priority 2014, dated 2018).
Residue numbers refer to the chain shown, from its start. In names and notes the source's numbering stands.

B1: PC9#2_GLP-1_VL: GLP-1 analogue SEQ ID NO:28 fused via linker SEQ ID NO:4 to light chain of PC9#2 (SEQ ID NO: 43) (protein)
chain: HGEGTFTSDVSSYLEEQAAKEFIAWLVKGGGGGGGSGGGGSGGGGSADIQMTQSPSSLSASVGDRVTITCKASQDVHTAVAWYQQKPGKAPKLLIYHASYRYTGVPSRFSGSGSGTDFTFTISSLQPEDIATYYCQQRYSLWRTFGQGTKLEIKR
modifications: heavy chain not cited
B2: HS9_DSB7_I23T: HS9_DSB7 with peptide point mutation I23T; SEQ ID NO: 457 (protein)
chain: HGEGTFTSDLSKQMEEECVRLFTEWLKNGGPSSGAPPPGCGGGGGSGGGGSGGGGSADIQMTQSPSSLSASVGDRVTITCQASQDVKTAVAWYQQKPGKAPKLLIYSASYRYTGVPSRFSGSGSGTDFTFTISSLQPEDIATYYCQQRYSLWRTFGQGTKLEIK
B3: HS9_DSB7_L26E: HS9_DSB7 with peptide point mutation L26E; SEQ ID NO: 470 (protein)
chain: B2 chain with T23I, L26E
B4: HS9_DSB7_L26D: HS9_DSB7 with peptide point mutation L26D; SEQ ID NO: 471 (protein)
chain: B2 chain with T23I, L26D
B5: HS9_DSB7_I23S: HS9_DSB7 with peptide point mutation I23S; SEQ ID NO: 458 (protein)
chain: B2 chain with T23S
B6: HS9_DSB7_L26S: HS9_DSB7 with peptide point mutation L26S; SEQ ID NO: 462 (protein)
chain: B2 chain with T23I, L26S
B7: HS9_DSB7_G2Y: HS9_DSB7 with peptide point mutation G2Y; SEQ ID NO: 444 (protein)
chain: B2 chain with G2Y, T23I
B8: HS9_DSB7_L26P: HS9_DSB7 with peptide point mutation L26P; SEQ ID NO: 463 (protein)
chain: B2 chain with T23I, L26P
B9: HS9_DSB7_V19G: HS9_DSB7 with peptide point mutation V19G; SEQ ID NO: 455 (protein)
chain: B2 chain with V19G, T23I
B10: HS9_DSB7_I23G: HS9_DSB7 with peptide point mutation I23G; SEQ ID NO: 459 (protein)
chain: B2 chain with T23G
B11: HS9_DSB7_L26M: HS9_DSB7 with peptide point mutation L26M; SEQ ID NO: 466 (protein)
chain: B2 chain with T23I, L26M
B12: HS9_DSB7_L26T: HS9_DSB7 with peptide point mutation L26T; SEQ ID NO: 461 (protein)
chain: B2 chain with T23I, L26T
B13: HS9_DSB7_G2Q: HS9_DSB7 with peptide point mutation G2Q; SEQ ID NO: 447 (protein)
chain: B2 chain with G2Q, T23I
B14: HS9_DSB7_L26G: HS9_DSB7 with peptide point mutation L26G; SEQ ID NO: 469 (protein)
chain: B2 chain with T23I, L26G
B15: HS9_DSB7_L26Q: HS9_DSB7 with peptide point mutation L26Q; SEQ ID NO: 465 (protein)
chain: B2 chain with T23I, L26Q
B16: HS9_DSB7_G2T: HS9_DSB7 with peptide point mutation G2T; SEQ ID NO: 446 (protein)
chain: B2 chain with G2T, T23I
B17: HS9_DSB7_G2I: HS9_DSB7 with peptide point mutation G2I; SEQ ID NO: 449 (protein)
chain: B2 chain with G2I, T23I
B18: HS9_DSB7_G2F: HS9_DSB7 with peptide point mutation G2F; SEQ ID NO: 450 (protein)
chain: B2 chain with G2F, T23I
B19: HS9_DSB7_L26H: HS9_DSB7 with peptide point mutation L26H; SEQ ID NO: 468 (protein)
chain: B2 chain with T23I, L26H
B20: HS9_DSB7_L26N: HS9_DSB7 with peptide point mutation L26N; SEQ ID NO: 464 (protein)
chain: B2 chain with T23I, L26N
B21: HS9_DSB7_G2N: HS9_DSB7 with peptide point mutation G2N; SEQ ID NO: 448 (protein)
chain: B2 chain with G2N, T23I
B22: HS9_DSB7_I23A: HS9_DSB7 with peptide point mutation I23A; SEQ ID NO: 460 (protein)
chain: B2 chain with T23A
B23: HS9_DSB7_V19T: HS9_DSB7 with peptide point mutation V19T; SEQ ID NO: 453 (protein)
chain: B2 chain with V19T, T23I
B24: HS9_DSB7_V19S: HS9_DSB7 with peptide point mutation V19S; SEQ ID NO: 454 (protein)
chain: B2 chain with V19S, T23I

Target: human GLP-1 receptor (Homo sapiens, UniProt P43220)
Sequence (P43220 24-463): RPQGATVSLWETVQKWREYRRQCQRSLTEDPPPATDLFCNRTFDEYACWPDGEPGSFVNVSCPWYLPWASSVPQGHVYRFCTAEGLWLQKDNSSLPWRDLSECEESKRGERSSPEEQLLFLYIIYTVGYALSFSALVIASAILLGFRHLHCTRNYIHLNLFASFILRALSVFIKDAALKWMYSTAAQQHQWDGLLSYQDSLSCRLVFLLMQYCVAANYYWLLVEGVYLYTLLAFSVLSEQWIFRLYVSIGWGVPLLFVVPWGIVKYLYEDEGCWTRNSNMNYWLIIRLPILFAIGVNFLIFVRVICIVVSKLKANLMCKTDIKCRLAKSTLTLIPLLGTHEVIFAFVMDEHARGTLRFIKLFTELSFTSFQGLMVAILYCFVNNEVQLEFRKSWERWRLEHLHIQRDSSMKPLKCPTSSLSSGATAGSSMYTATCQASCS
Assay: cAMP production assay in CHO cells expressing human GLP-1 receptor
Format: cell-based
Conditions: Table 13; EC50 relative to GLP1-Fc
Experimental: Low protein binding 384-well plates (Greiner) were used to perform eleven 1 in 4 serial dilutions of test compound that were made in assay medium (0.1% bovine serum albumin in Hanks Balanced Salt Solution (GIBCO or Sigma), containing 0.5 mM IBMX (Sigma)). All sample dilutions were made in duplicate. […] Cells were then re-suspended in assay buffer at the optimized concentration of 1×10^5 cells/mL and dispensed at 5 uL per well to black shallow-well u-bottom 384-well plates (Corning). 5 μL of test compound was transferred from the dilution plate to the cell plate and incubated at room temperature for 30 minutes. cAMP levels were measured the cAMP dynamic 2 HTRF kit (Cisbio), following the two step protocol as per manufacturer's recommendations. Briefly, anti-cAMP cryptate (donor fluorophore) and cAMP-d2 (acceptor fluorophore) were made up separately by diluting each 1/20 in conjugate & lysis buffer provided in the kit. 5 uL of anti-cAMP cryptate was added to all wells of the assay plate and 5 uL of cAMP-d2 added to all wells except non-specific binding wells, to which only conjugate and lysis buffer was added. […] Data was transformed to % Delta F as described in manufacturer's guidelines and analyzed by unconstrained 4-parameter logistic fit of data, curve mid-point to determine EC50.

Molecule | x change
B1 | 2.4

Same assay, conditions: Table 18

Molecule | Potency at huGLP-1R in cAMP assay (M)
B2 | Inactive
B3 | Inactive
B4 | Inactive
B5 | Inactive
B6 | Inactive

Same assay, conditions: Table 18; maximum activation compared to GLP-1

Molecule | % Max Effect
B7 | 10%
B8 | 60%
B9 | 93%
B10 | 82%
B11 | 90%
B12 | 87%
B13 | 86%
B14 | 81%
B15 | 34%
B16 | 73%
B17 | 87%
B18 | 69%
B19 | 87%
B20 | 44%
B21 | 31%
B2 | Inactive
B22 | 67%
B3 | Inactive
B4 | Inactive
B5 | Inactive
B23 | 95%
B24 | 94%
B6 | Inactive
